Test results taken from US20160347804A1 (IPIERIAN, published 2016).

Legend:
eTau1 = molecular target: T1, eTau1 (human, UniProt P10636 2-547); assay: direct binding assay, purified mAb, recombinant eTau fragment
T1 construct: also called recombinant eTau1 fragment; eTau 2-172

eTau2 = molecular target: T2, eTau2 (human, UniProt P10636 2-526); assay: as above
T2 construct: Recombinant eTau fragment; also called recombinant eTau2; reTau2

eTau3 = molecular target: T3, eTau3 (human, UniProt P10636 2-497); assay: as above
T3 construct: Recombinant eTau fragment; also called recombinant eTau3; reTau3

eTau4 [1] = molecular target: T4, eTau4 (human, UniProt P10636 2-124); assay: as above
T4 construct: Recombinant eTau fragment; also called recombinant eTau4

[2] = molecular target: T5, full-length recombinant tau (0N4R) (UniProt P10636-6 1-383); assay: direct binding ELISA-type assay, purified mAb, full-length recombinant tau 0N4R
T5 construct: The screening step used biotin-labeled full-length tau; also called rTau383

eTau4 [3] = molecular target: T4, eTau4; assay: direct binding ELISA, antibody titrated on eTau4, OD-450 nm
[4] = molecular target: full-length recombinant tau (0N4R) (UniProt P10636 1-383); assay: direct binding ELISA, antibody titrated on rTau383, OD-450 nm
[5] = molecular target: T5, full-length recombinant tau (0N4R); assay: as above

T2 sequence (P10636 other isoform, or with tags, fused parts or gaps limits assumed): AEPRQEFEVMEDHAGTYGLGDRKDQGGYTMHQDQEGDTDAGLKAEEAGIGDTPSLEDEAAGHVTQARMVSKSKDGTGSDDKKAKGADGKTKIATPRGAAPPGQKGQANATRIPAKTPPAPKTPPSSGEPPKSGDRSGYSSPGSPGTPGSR
T4 sequence (P10636 other isoform, or with tags, fused parts or gaps limits assumed): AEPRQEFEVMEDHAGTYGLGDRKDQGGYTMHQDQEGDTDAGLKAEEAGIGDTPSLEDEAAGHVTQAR
T1 sequence (P10636 other isoform, or with tags, fused parts or gaps limits assumed): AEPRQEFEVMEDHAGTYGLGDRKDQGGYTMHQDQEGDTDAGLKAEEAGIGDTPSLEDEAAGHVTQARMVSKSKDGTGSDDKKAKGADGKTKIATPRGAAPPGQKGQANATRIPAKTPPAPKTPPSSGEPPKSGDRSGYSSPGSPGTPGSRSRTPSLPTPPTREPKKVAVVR
T3 sequence (P10636 other isoform, or with tags, fused parts or gaps limits assumed): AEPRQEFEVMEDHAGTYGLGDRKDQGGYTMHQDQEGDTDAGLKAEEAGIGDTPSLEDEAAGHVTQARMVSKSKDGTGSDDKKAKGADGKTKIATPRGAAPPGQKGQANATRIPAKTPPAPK
T5 sequence (P10636 other isoform, or with tags, fused parts or gaps limits assumed): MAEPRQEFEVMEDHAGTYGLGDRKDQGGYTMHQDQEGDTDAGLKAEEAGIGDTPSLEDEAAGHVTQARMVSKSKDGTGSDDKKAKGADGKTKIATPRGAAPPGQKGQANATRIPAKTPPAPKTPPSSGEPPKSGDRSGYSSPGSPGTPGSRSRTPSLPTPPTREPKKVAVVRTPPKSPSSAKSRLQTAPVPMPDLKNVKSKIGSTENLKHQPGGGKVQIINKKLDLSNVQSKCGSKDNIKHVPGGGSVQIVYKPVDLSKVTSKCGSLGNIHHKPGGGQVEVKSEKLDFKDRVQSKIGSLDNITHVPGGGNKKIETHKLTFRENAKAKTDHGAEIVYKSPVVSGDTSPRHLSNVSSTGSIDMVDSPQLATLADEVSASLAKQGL

Binder | Kd (eTau1) [nM] | binding result (eTau2) | binding result (eTau3) | binding result (eTau4 [1]) | Kd [2] [nM] | Kd (eTau2) [nM] | Kd (eTau3) [nM] | Kd (eTau4 [1]) [nM] | EC50 (read off the curve) (eTau4 [3]) [nM] | EC50 (read off the curve) [4] [nM] | binding result (eTau1) | binding result [5]
7295-M6 (antibody, V domains shown, also called anti-Tau mAb 7295-M6) VH: EVQLEESGAELVRSGASVTLSCTASGFNIKDYYIHWVKQRPEQGLEWIGWIDPENGDTEYAPKFQGKATMTADTSSNTAYLQLSSLTSEDTAVYYCNGAPGYWGPGTTLTVSS VL: DIVLTQTPLSLPVSLGDPASISCRSSQTIVHSNGNTYLEWYLQKPGQSPKLLIYKVSNRFSGVPDRFSGSGSGTDFTLKISRVEAEDLGVYYCFQGSHVPFTFGSGTKLEIKR | 0.0528 | no binding | no binding | no binding | 0.117 | – | – | – | – | – | – | –
7295-M8 (antibody, IgG2b, V domains shown, also called anti-Tau mAb 7295-M8) VH: EVQLEESGAELVRSGASVTLSCTASGFNIKDYYIHWVKQRPEQGLEWIGWIDPENGDTEYAPKFQGKATMTADTSSNTAYLQLSSLTSEDTAVYYCNGAPGYWGPGTTLTVSS VL: DIVLTQTPLSLPVSLGDPASISCRSSQTIVHSNGNTYLEWYLQKPGQSPKLLIYKVSNRFSGVPDRFSGSGSGTDFTLKISRVEAEDLGVYYCFQGSHVPFTFGSGTKLEIKR | 0.044 | no binding | no binding | no binding | 0.08 | – | – | – | – | – | – | –
7298-M1 (antibody, IgG2a, V domains shown, also called anti-Tau mAb 7298-M1) VH: EVQLEESGGGLVQPGGSLSLSCAASGFTFTDYYMSWVRQPPGKALEWVALNRNKTKGYTTEYSASVKGRFTISRDNSQSILYLQMNALRAEDSATYYCARGMDYWGQGTSVTVSS VL: DIVLTQSPTSLAVSLGQRATISCRASKSVSTSDYSYMHWYQQKPGQPPKLLIYLASNLESGVPARFSGSGSGTDFTLNIHPVEEEDAATYYCQHSRELPFTFGGGTKLEIKR | 3 | – | – | no binding | 6.68 | 1 | 0.1 | – | – | – | – | –
7298-M2 (antibody, IgG2a, V domains shown, also called anti-Tau mAb 7298-M2) VH: EVQLEESGGGLVKPGGSLKLSCAASGFTFSTYPMSWVRQTPEKRLEWVASISNGGSTYYPDTVKGRFTISRDNARNILYLQMSSLRSEDTAMYYCARGRDYHFDFWGQGTTLTVSS VL: DIVLTQSPTSLAVSLGQRATISCRASKSVSTSDYSYMHWYQQKPGQPPKLLIYLASNLESGVPARFSGSGSGTDFTLNIHPVEEEDAATYYCQHSRELPFTFGGGTKLEIKR | 2 | – | – | no binding | 4.41 | 0.7 | 0.08 | – | – | – | – | –
7297-2M1 (antibody, IgG1, V domains shown, also called anti-Tau mAb 7297-2M1) VH: EVQLEQSGAELVKPGASVKLSCKASGYTFISNWMHWVKQRPGQGLEWIGNIDPSDSETHYNQKFKDKATLTVDKSSSTAYMQLSSLTSEDSAVYYCARRDRDGYYFDYWGQGTTLTVSS VL: DIVLTQTPSSLSASLGGKVTITCKASQDINKYIAWYQHKPGKGPRLLIHYTSTLQSGIPSRFSGSGSGRDYSFSISNLEPEDIATYYCLQYDHLLTFGAGTKLELKR | 0.1 | – | no binding | no binding | 2.21 | 0.09 | – | – | – | – | – | –
7299-M5 (antibody, IgG2b, V domains shown) VH: EVKLEESGAELVKPGASVKLSCKASGYTFISNWMHWVKQRPGQGLEWIGNIDPSDSETHYNQKFKDKATLTVDKSSSTAYMQLSSLTSEDSAVYYCARRDRDGYYFDYWGQGTTLTVSS VL: DIVMTQSPLSLSVTIGQPASISCKSSQSLLYSDGKTYLNWLQQRPGQSPKRLVYQVSKLDPGIPDRFSGSGSETDFTLKLSRVEAEDLGVYYCLQGTYYPHTFGGGTKLEIKR | 0.6 | – | – | – | 0.511 | 1 | 0.6 | 0.5 | – | – | – | –
IPN002 (antibody, V domains shown) VH: EVHLVESGGALVKPGGSLKLSCAASGFSFSKYGMSWVRQTPDKRLEWVATISSSGSRTYYPDSVKGQFTISRDNAKNTLYLQMSSLKSEDTAMYYCSISWDGAMDYWGQGTSVTVSS VL: DVLMTQTPLSLPVSLGDQASISCKSSQSIVHSNGNTYLEWYLQKPGQSPKLLVYKVSNRFSGVPDRFSGSGSGTDFTLKISRVEAEDLGTYYCFQGSLVPWAFGGGTKLEIK | – | – | – | – | – | – | – | – | ~0.1 | ~0.07 | – | –
7299-M2 (antibody, IgG1, V domains shown) VH: QVQLEESGAELVKPGASVKLSCKASGYTFTNYWINWVKQRPGQGLEWIGNIYPGSTRANYNEKFKSKATLTVDTSSSTAYMQVSSLTSDDSAVYYCTRTHSIWGQGTQVTVSA VL: DIVLTQTPLTLSVTIGQPASISCKSSQSLLYSDGKTFLNWLLQSPGQSPRLLIYLVSKLQSGVPDRFSGSGSGTDFTLKISRVEAEDLGVYYCVQGTHFPYTFGGGTKLEIKR | – | no binding | no binding | – | – | – | – | 0.8 | ~0.03 | – | no binding | no binding (tested: log -8.2 M (about 6e-9 M))
7299-M9 (antibody, IgG1, V domains shown) VH: EVKLEQSGAELVKPGASVKLSCKASGYTFTNYWINWVKQRPGQGLEWIGNIYPGSTRANYNEKFKSKATLTVDTSSSTAYMQVSSLTSDDSAVYYCTRTHSIWGQGTQVTVSA VL: DIVITQSPLSLSVTIGQPASISCKSSQSLLYSDGKTYLNWLQQRPGQSPKRLVYQVSKLDPGIPDRFSGSGSETDFTLKLSRVEAEDLGVYYCLQGTYYPHTFGGGTKLEIKR | 0.6 | – | – | – | 0.277 | 0.7 | 1 | 0.6 | – | – | – | –
